# Test results reported in US20200283508A1 (TEXAS A AND M UNIVERSITY SYSTEM, published 2020).
# Like-named read-outs stand apart in the source and are kept apart here.
# B1: FBE5-F11 (scFv, V domains shown)
# VH: QVQLQESGGGVVQPGRSLRLSCAASGFTFSSYGMHWVRQAPGKGLEWVAVISYDGSNKYYADSVKGRFTISRDNSKNTLYLQMNSLRAEDTAVYYCAKDLASSGFDYWGQGTLVTVSS
# VL: QSVLTQPPSVSAAPGQKVTISCSGSSSNIGNNYVSWYQQLPGTAPKLLIYDNNKRPSGIPDRFSGSKSGTSATLGITGLQTGDEADYYCGTWDSSLSAEVFGGGTKLTVL
# B2: FBE5-E5 (scFv, V domains shown)
# VH: QMQLVQSGGGVVQPGRSLRLSCAASGFTFSSYGMHWVRQAPGKGLEWVAVISYDGSNKYYADSVKGRFTISRDNSKNTLYLQMNSLRGEDTAVYYCAREGGWEPNGLDYWGQGTLVTVSS
# VL: B1 VL
# B3: LIG40-A11 (scFv, V domains shown)
# VH: QVQLVESGGVVVQPGGSLRLSCAASGFTFDDYAMHWVRQAPGKGLEWVSLISWDGGSTYYADSVKGRFTISRDNSKNSLYLQMNSLRAEDTALYYCVAARRGMDVWGQGTTVTVSS
# VL: KIVLTQSPLSLPVTPGEPASISCRSSQSLLYSNGNNYLDWYLQKPGQSPQLLIYLGSNRAPGVPDRFSGSGSGTDFTLRISRVEAEDVGVYYCMQGRQPPFTFGPGTKVDIK
# notes: also called anti-CoaR scFv-Fc antibody
# B4: Fibrinogen-D fragment (other)
# chain 1: VSEDLRSRIEVLKRKVIEKVQHIQLLQKNVRAQLVDMKRLEVDIDIKIRSCRGSCSRALAREVDLKDYEDQQKQLEQVIAKDLLPSR
# chain 2: DNENVVNEYSSELEKHQLYIDETVNSNIPTNLRVLRSILENLRSKIQKLESDVSAQMEYCRTPCTVSCNIPVVSGKECEEIIRKGGETSEMYLIQPDSSVKPYRVYCDMNTENGGWTVIQNRQDGSVDFGRKWDPYKQGFGNVATNTDGKNYCGLPGEYWLGNDKISQLTRMGPTELLIEMEDWKGDKVKAHYGGFTVQNEANKYQISVNKYRGTAGNALMDGASQLMGENRTMTIHNGMFFSTYDRDNDGWLTSDPRKQCSKEDGGGWWYNRCHAANPNGRYYWGGQYTWDMAKHGTDDGVVWMNWKGSWYSMRKMSMKIRPFFPQQ
# chain 3: KMLEEIMKYEASILTHDSSIRYLQEIYNSNNQKIVNLKEKVAQLEAQCQEPCKDTVQIHDITGKDCQDIANKGAKQSGLYFIKPLKANQQFLVYCEIDGSGNGWTVFQKRLDGSVDFKKNWIQYKEGFGHLSPTGTTEFWLGNEKIHLISTQSAIPYALRVELEDWNGRTSTADYAMFKVGPEADKYRLTYAYFAGGDAGDAFDGFDFGDDPSDKFFTSHNGMQFSTWDNDNDKFEGNCAEQDGSGWWMNKCHAGHLNGVYYQGGTYSKASTPNGYDNGIIWATWKTRWYSMKKTTMKIIPFNRLTIGEGQQHHLGGAK
# notes: domain: D fragment; also called Fg-D; D fragment of human Fg
# Legend:
# Coa-C (Coa 311-636) [1] = target: T1, Coa-C (Coa 311-636) (Staphylococcus aureus strain Newman, UniProt P08515 1-218 = GST)
# Efb-A30-67 [2] = target: T2, Efb-A30-67 (Staphylococcus aureus strain Newman, UniProt P08515 1-218 = GST; A6QG59 30-67)
# [3] = target: T3, recombinant Efb-O (Efb 68-98) (Staphylococcus aureus strain Newman, UniProt P08515 1-218 = GST)
# Efb-N30-105 [4] = target: T4, Efb-N30-105 (Staphylococcus aureus strain Newman, UniProt A6QG59 30-105); experiment: ELISA, apparent Kd from half maximum binding
# T4 sequence: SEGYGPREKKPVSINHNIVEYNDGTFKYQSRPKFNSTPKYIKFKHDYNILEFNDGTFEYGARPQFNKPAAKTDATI
# Efb-A30-67 [5] = target: T2, Efb-A30-67; experiment: ELISA, apparent Kd from half maximum binding
# [6] = target: T3, recombinant Efb-O (Efb 68-98); experiment: ELISA, apparent Kd from half maximum binding
# Coa-R (Coa 506-636) [7] = target: T5, Coa-R (Coa 506-636) (Staphylococcus aureus strain Newman); experiment: ELISA, antigen coated 200 ng/well, scFv-Fc at 0.5 µg/ml
# Coa-C (Coa 311-636) [8] = target: T1, Coa-C (Coa 311-636); experiment: apparent Kd from half-maximal binding in ELISA (GraphPad Prism)
# Coa-F (Coa 311-505) = Coa-F (Coa 311-505) (Staphylococcus aureus strain Newman, UniProt P08515 1-218 = GST); experiment: as above
# [9] = target: T6, Coa-R0474-505 (recombinant protein) (Staphylococcus aureus strain Newman); experiment: as above
# T6 chain: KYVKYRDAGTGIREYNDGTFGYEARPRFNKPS
# Efb-N30-105 [10] = target: T4, Efb-N30-105; experiment: as above
# Efb-A30-67 [11] = target: T2, Efb-A30-67; experiment: as above
# [12] = target: T3, recombinant Efb-O (Efb 68-98); experiment: as above
# Efb-N30-105 [13] = target: T4, Efb-N30-105; experiment: ELISA, antigen coated 200 ng/well, scFv-Fc at 0.5 µg/ml
# Coa-C (Coa 311-636) [14] = target: T1, Coa-C (Coa 311-636); remark: listed apart in the source
# Coa-R (Coa 506-636) [15] = target: T5, Coa-R (Coa 506-636)
# BSA = target: T7, BSA (bovine, UniProt P02769 25-607); experiment: solid-phase binding assay (FIG. 24)
# T7 construct: also called bovine serum albumin
# T7 sequence (P02769 25-607 limits assumed): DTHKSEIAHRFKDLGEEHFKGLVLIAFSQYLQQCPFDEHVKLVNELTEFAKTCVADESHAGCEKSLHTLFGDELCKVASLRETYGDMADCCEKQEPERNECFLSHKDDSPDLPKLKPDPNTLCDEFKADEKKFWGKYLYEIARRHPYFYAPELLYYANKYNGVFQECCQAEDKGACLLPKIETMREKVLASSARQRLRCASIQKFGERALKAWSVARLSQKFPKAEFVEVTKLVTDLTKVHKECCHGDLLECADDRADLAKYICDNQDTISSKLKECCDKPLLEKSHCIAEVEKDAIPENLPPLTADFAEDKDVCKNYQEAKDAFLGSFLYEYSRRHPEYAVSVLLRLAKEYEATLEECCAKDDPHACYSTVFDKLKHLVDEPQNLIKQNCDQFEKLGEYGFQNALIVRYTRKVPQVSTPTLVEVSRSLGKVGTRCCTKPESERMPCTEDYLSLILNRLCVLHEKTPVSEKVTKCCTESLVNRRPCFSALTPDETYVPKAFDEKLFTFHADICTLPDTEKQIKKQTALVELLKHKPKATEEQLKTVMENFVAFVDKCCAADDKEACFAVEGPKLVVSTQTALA
# Efb-N30-105 [16] = target: T4, Efb-N30-105; experiment: solid-phase binding assay, titration (FIG. 24)
# Efb-A30-67 [17] = target: T2, Efb-A30-67; experiment: solid-phase binding assay, titration (FIG. 24)
# [18] = target: T3, recombinant Efb-O (Efb 68-98); experiment: solid-phase binding assay, titration (FIG. 24)
# [19] = target: T6, Coa-R0474-505 (recombinant protein); experiment: solid-phase binding assay, titration (FIG. 24); ND in FIG. 27
# [20] = target: T8, synthetic peptide Coa-RI (Coa 506-532) (Staphylococcus aureus strain Newman); experiment: peptide inhibition ELISA; appreciable inhibition only above 100 µM peptide
# T8 construct: also called sCoa-RI
# Coa-C (Coa 311-636) [21] = target: T1, Coa-C (Coa 311-636); experiment: apparent Kd from half-maximal binding in ELISA (GraphPad Prism); remark: listed apart in the source
# Protocol: As well, binding was tested against Coa fragments, namely Coa-C₃₁₁₋₆₃₆, Coa-F₃₁₁₋₅₀₅, Coa-R0₄₇₄₋₅₀₅ and Coa-R₅₀₆₋₆₃₆. Recombinant proteins Efb-N₃₀₋₁₀₅, Efb-A₃₀₋₆₇, Efb-O₆₈₋₉₈, Coa-C₃₁₁₋₆₃₆, Coa-F₃₁₁₋₅₀₅, Coa-R0₄₇₄₋₅₀₅ and Coa-R₅₀₆₋₆₃₆ were diluted in 50 mM sodium carbonate pH 9.6 and immobilized at the concentration of 200 ng/well for 1 hour at room temperature. Immobilized proteins were probed for recognition in a solid-phase binding assay with different quantities of LIG40 antibodies after blocking and washing. After washing, varying concentrations of LIG40 scFv-Fc antibodies were diluted in 2% BSA+1×PBS+0.05% Tween-20 and incubated with the immobilized proteins for 1 hour at room temperature with shaking at 250 rpm. Bound scFv-Fcs were detected using polyclonal α-human IgG HRP-conjugated Ab diluted to 1:10000 in 2% BSA+1×PBS+0.05% Tween-20. HRP-conjugated Ab was incubated for 1 hour at room temperature with shaking at 250 rpm. HRP signal was developed with Sigma FAST-OPD using manufacturers guidelines.
# Coa-R (Coa 506-636) [22] = target: T5, Coa-R (Coa 506-636); experiment: blocking ELISA: scFv-Fc pre-incubated with 10 nM CoaR, residual binding to coated Fg (blocked ligand: Fg)
# [23] = target: T8, synthetic peptide Coa-RI (Coa 506-532); experiment: isothermal titration calorimetry, peptide into 10 µM Fg-D, one-site model
binder,measurement,setting,value
B1,EC50 (read off the curve),Coa-C (Coa 311-636) [1],~0.06 µg/mL
same,EC50 (read off the curve),Efb-A30-67 [2],~0.06 µg/mL
same,EC50 (read off the curve),[3],~0.05 µg/mL
same,Kd,Efb-N30-105 [4],~0.1 nM
same,Kd,Efb-A30-67 [5],~0.1 nM
same,Kd,[6],~0.1 nM
same,binding result,Coa-R (Coa 506-636) [7],no binding (tested: 0.5 µg/ml)
same,Kd,Coa-C (Coa 311-636) [8],0.513 nM
same,Kd,Coa-F (Coa 311-505),0.244 nM
same,Kd,[9],0.213 nM
same,Kd,Efb-N30-105 [10],0.219 nM
same,Kd,Efb-A30-67 [11],0.483 nM
same,Kd,[12],0.396 nM
B2,binding result,Efb-N30-105 [13],binds
same,binding result,Coa-R (Coa 506-636) [7],no binding (tested: 0.5 µg/ml)
same,Kd,Coa-C (Coa 311-636) [8],6.27 nM
same,Kd,Coa-F (Coa 311-505),9.5 nM
same,Kd,[9],864 nM
same,Kd,[12],434 nM
B3,EC50 (read off the curve),Coa-C (Coa 311-636) [14],~0.02 µg/mL
same,EC50 (read off the curve),Coa-R (Coa 506-636) [15],~0.008 µg/mL
same,binding result,BSA,no binding
same,binding result,Efb-N30-105 [16],no binding
same,binding result,Efb-A30-67 [17],no binding
same,binding result,[18],no binding
same,binding result,[19],no binding
same,binding result,[20],binds
same,Kd,Coa-C (Coa 311-636) [21],0.133 nM
same,IC50 (read off the curve),Coa-R (Coa 506-636) [22],~3 µg/mL
B4,Kd,[23],88 nM
